For test [1], the target named is recombinant human DR 5 receptor Fc fusion protein (R&D Systems) (human). The test can be described thus: SPR (Biacore), captured DR5/Fc. Background: Surface plasmon resonance follows binding to a sensor surface in real time, without labels.
Test [2] concerns the target recombinant human DR 4 receptor Fc fusion protein (R&D Systems) (human). Nature of the test: SPR (Biacore), captured DR4/Fc.
The target in test [3] is T1, recombinant human IL-23R/Fc chimera (R&D Systems) (human, UniProt Q5VWK5 24-353).
T1 construct: bought; also called human IL-23R/Fc fusion protein; rhIL23RFc
T1 sequence (looked up): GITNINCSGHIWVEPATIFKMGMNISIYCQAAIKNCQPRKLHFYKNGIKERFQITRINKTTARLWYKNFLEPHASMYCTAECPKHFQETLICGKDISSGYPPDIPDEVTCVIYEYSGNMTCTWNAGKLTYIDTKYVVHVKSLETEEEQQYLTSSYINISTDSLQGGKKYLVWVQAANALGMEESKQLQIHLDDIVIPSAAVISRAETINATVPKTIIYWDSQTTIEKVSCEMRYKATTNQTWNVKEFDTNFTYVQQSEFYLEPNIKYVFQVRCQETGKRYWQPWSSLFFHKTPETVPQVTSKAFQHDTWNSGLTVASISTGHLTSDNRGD
Nature of the test: competition ELISA against IL-23. For orientation: ELISA stands for enzyme-linked immunosorbent assay.

Test [4] deals with T1, recombinant human IL-23R/Fc chimera …. Nature of the test: SPR (Biacore), captured IL-23R/Fc, ATRIMER. Here is the method: A Biacore 3000 biosensor (GE Healthcare) was used to evaluate the interaction of human IL-23R and receptor binders. Immobilization of an anti-human IgG Fc antibody (GE Heathcare) to the CM5 chip (Biacore) was performed using standard amine coupling chemistry, and this modified surface was used to capture a recombinant human IL-23R/Fc fusion protein (R&D Systems). A low-density receptor surface, less than 200 RU, was used for all of the analyses. ATRIMER™ polypeptide complex dilutions (1-500 nM) were injected over the IL-23R surface at 30 μl/min and kinetic constants were derived from the sensorgram data using the Biaevaluation software (version 3.1, GE Healthcare). Data collection was 3 minutes for the association and 5 minutes for dissociation. The anti-human IgG surface was regenerated with a 30 s pulse of 3M magnesium chloride. All sensorgrams were double-referenced against an activated and blocked flow-cell as well as buffer injections.

Test [5] deals with T2, recombinant human IL-12Rβ2/Fc fusion protein (R&D Systems) (human, UniProt Q99665 24-622, limits assumed).
T2 construct: bought; also called Il12Rb2
T2 sequence (looked up): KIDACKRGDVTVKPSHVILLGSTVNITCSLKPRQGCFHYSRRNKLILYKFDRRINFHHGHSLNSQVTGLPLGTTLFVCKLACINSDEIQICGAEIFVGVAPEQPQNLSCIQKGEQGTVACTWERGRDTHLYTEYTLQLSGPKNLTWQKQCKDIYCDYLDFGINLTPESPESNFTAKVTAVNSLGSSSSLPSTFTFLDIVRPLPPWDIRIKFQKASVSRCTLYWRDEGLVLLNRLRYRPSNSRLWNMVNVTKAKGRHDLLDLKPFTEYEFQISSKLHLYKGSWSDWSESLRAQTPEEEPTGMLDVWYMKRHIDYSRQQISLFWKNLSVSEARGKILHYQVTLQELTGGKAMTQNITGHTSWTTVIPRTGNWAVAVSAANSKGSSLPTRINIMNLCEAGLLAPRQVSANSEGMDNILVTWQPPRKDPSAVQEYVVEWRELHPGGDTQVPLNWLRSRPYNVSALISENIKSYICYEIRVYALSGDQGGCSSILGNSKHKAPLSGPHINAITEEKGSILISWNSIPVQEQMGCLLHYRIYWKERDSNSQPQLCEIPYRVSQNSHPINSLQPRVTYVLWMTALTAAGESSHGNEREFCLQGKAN
Nature of the test: Biacore, IL-12Rβ2/Fc captured. Here is the method: (§1) A Biacore 3000 biosensor (GE Healthcare) was used to evaluate the interaction of human IL-12Rβ1/Fc or IL-12Rβ2/Fc with IL-23R binding ATRIMER™ complexes. Immobilization of an anti-human IgG Fc antibody (GE Healthcare) to the CM5 chip (GE Healthcare) was performed using standard amine coupling chemistry, and this modified surface was used to capture recombinant human IL-12Rβ1/Fc or IL-12Rβ2/Fc fusion protein (R&D Systems). A low-density receptor surface, less than 200 RU, was used for all of the analyses. ATRIMER™ complex dilutions (100 nM) were injected over the IL-12R surface at 30 μl/min. Data collection was 3 minutes for the association and 5 minutes for dissociation. The anti-human IgG surface was regenerated with a 30 s pulse of 3M magnesium chloride. All sensorgrams were double-referenced against an anti-human IgG Fc antibody surface as well as buffer injections.

Test [6] has as its target T3, recombinant human IL-12Rβ1/Fc fusion protein (R&D Systems) (human, UniProt P42701 24-540, limits assumed).
T3 construct: bought; also called Il12Rb1
The test can be described thus: Biacore, IL-12Rβ1/Fc captured. Here is the method: as §1

Sequence of recombinant human DR 5 receptor Fc fusion protein (R&D Systems) (human) (chain, as listed by the source): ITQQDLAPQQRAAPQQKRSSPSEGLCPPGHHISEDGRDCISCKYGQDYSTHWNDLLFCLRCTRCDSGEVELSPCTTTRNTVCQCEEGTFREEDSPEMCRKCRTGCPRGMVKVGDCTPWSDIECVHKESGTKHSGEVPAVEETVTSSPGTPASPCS
Sequence of recombinant human DR 4 receptor Fc fusion protein (R&D Systems) (human) (chain, as listed by the source): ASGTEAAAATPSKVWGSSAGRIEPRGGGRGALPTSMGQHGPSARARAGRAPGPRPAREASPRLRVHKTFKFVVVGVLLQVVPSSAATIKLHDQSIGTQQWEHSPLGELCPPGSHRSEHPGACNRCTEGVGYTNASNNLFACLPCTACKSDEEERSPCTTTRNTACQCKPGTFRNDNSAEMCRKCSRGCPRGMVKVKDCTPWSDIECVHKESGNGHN

B1: 9b3d (=B3D) DR 5 ATRIMER (designed binder)
chain: EPPTQKPKKIVNAKKDVVNTKMFEELKSRLDTLAQEVALLKEQQALQTVCLKGTKVHMKCFLAFTQTKTFHEASEDCISRGGTLSTPQTGSENDALYEYLRQSVGNEAEIWLGLNELRTDGLWVDMTGARIAYKNWETEITAQPDGGVMRRSENCAVLSGAANGKWFDKRCRDQLPYICQFGIV
modifications: Homotrimer (ATRIMER) of this chain; one protomer is given.
notes: also called 029-15.B3D; not shown: C-terminal tag (His/Myc of pANA4, HA-StrepII of pANA10, or that of pANA19)
A word on the Kd: it is the constant that tells how readily two partners part at equilibrium. By koff is commonly meant the first-order rate constant of dissociation. For orientation: kon means the rate constant with which the complex forms. Consider B1, for which, in test [1], the Ka was 1.11e+06 M⁻¹, the dissociation constant (Kd) turned out to be 899 nM, the koff is 0.000104 s⁻¹ and the kon is 116 M⁻¹ s⁻¹.

B2: 1a7b (=A8G) DR 5 ATRIMER (designed binder)
chain: EPPTQKPKKIVNAKKDVVNTKMFEELKSRLDTLAQEVALLKEQQALQTVCLKGTKVHMKCFLAFTQTKTFHEASEDCISRGGTLSTPQTGSENDALYEYLRQSVGNEAEIWLGLNRAWLRPRWVDMTGARIAYKNWETEITAQPDGGTLVSGENCAVLSGAANGKWFDKRCRDQLPYICQFGIV
modifications: Homotrimer (ATRIMER) of this chain; one protomer is given.
notes: also called 029-15.A8G; not shown: C-terminal tag (His/Myc of pANA4, HA-StrepII of pANA10, or that of pANA19)
Turning to B2, in test [1], the Ka came out at 6.43e+07 M⁻¹, the dissociation constant (Kd) is 15.6 nM, the koff is 0.000629 s⁻¹ and the kon came out at 40500 M⁻¹ s⁻¹.

B3: 8b6b (=A1H) DR 5 ATRIMER (designed binder)
chain: EPPTQKPKKIVNAKKDVVNTKMFEELKSRLDTLAQEVALLKEQQALQTVCLKGTKVHMKCFLAFTQTKTFHEASEDCISRGGTLSTPQTGSENDALYEYLRQSVGNEAEIWLGLNRAVLRPRWVDMTGARIAYKNWETEITAQPDGGWVLGGKNCAVLSGAANGKWFDKRCRDQLPYICQFGIV
modifications: Homotrimer (ATRIMER) of this chain; one protomer is given.
notes: also called 029-15.A1H; not shown: C-terminal tag (His/Myc of pANA4, HA-StrepII of pANA10, or that of pANA19)
For B3, in test [1], the Ka was 2.56e+07 M⁻¹, the Kd is 39.1 nM, the off-rate constant (koff) amounted to 0.000506 s⁻¹ and the on-rate constant (kon) stood at 12900 M⁻¹ s⁻¹.

B4: 014-42.3D11 ATRIMER (designed binder)
chain: EPPTQKPKKIVNAKKDVVNTKMFEELKSRLDTLAQEVALLKEQQALQTVCLKGTKVHMKCFLAFTQTKTFHEASEDCISRGGTLSTPQTGSENDALYEYLRQSVGNEAEIWLGLNGWLEGAGWVDMTGARIAYKNWETEITAQPDGGWHWRWENCAVLSGAANGKWFDKRCRDQLPYICQFGIV
modifications: Homotrimer (ATRIMER) of this chain; one protomer is given.
notes: not shown: C-terminal tag (His/Myc of pANA4, HA-StrepII of pANA10, or that of pANA19)
On to B4, for which, in test [2], the Ka worked out at 2.53e+07 M⁻¹, the Kd came out at 39.5 nM, the off-rate (koff) stood at 0.000526 s⁻¹ and the on-rate constant (kon) amounted to 13300 M⁻¹ s⁻¹.

B5: 2a1a (=B9F) DR 5 ATRIMER (designed binder)
chain: EPPTQKPKKIVNAKKDVVNTKMFEELKSRLDTLAQEVALLKEQQALQTVCLKGTKVHMKCFLAFTQTKTFHEASEDCISRGGTLSTPQTGSENDALYEYLRQSVGNEAEIWLGLNKRVWYRGWVDMTGARIAYKNWETEITAQPDGGMRRRRENCAVLSGAANGKWFDKRCRDQLPYICQFGIV
modifications: Homotrimer (ATRIMER) of this chain; one protomer is given.
notes: also called 029-15.B9F; not shown: C-terminal tag (His/Myc of pANA4, HA-StrepII of pANA10, or that of pANA19)
As for B5, in test [1], the Ka is 2.38e+07 M⁻¹, the Kd was determined as 42.8 nM, the off-rate (koff) was found to be 0.00184 s⁻¹ and the on-rate constant (kon) was found to be 43800 M⁻¹ s⁻¹.

B6: 101-80-5H3 ATRIMER (designed binder)
chain: EPPTQKPKKIVNAKKDVVNTKMFEELKSRLDTLAQEVALLKEQQALQTVCLKGTKVHMKCFLAFTQTKTFHEASEDCISRGGTLSTPQTGSENDALYEYLRQSVGNEAEIWLGLNGSALTNTWVDMTGARIAYKNWEPPAPYHPMAAGVFGENCAVLSGAANGKWFDKRCRDQLPYICQFGIV
modifications: ATRIMER is a homotrimer; one protomer is given.
notes: one residue deleted from Loop 4 (-GVFG); the GlyGly to AlaAla change; not shown: C-terminal purification tag: Myc/His6 (pANA4) or HA-StrepII (pANA10)
In the case of B6, the “Ratio IC50 to 056-53.H4E IC50” value in test [3] turned out to be 11.3 ratio. In test [4], the Ka was 1.55e+08 M⁻¹, the Kd stood at 6.46 nM, the koff was 0.000327 s⁻¹ and the kon came to 50500 M⁻¹ s⁻¹.

B7: 101-51-1A4 ATRIMER (designed binder)
chain: EPPTQKPKKIVNAKKDVVNTKMFEELKSRLDTLAQEVALLKEQQALQTVCLKGTKVHMKCFLAFTQTKTFHEASEDCISRGGTLSTPQTGSENDALYEYLRQSVGNEAEIWLGLNGSALTNTWVDMTGARIAYKNWERPALVQPRGGFGVFGENCAVLSGAANGKWFDKRCRDQLPYICQFGIV
notes: also called ATRIMER complex 1A4
Regarding B7, the binding result in test [5] is reported as “no binding (tested: 100 nM)”. The “Ratio IC50 to 056-53.H4E IC50” value in test [3] was determined as 1 ratio. Moreover, the binding result in test [6] is “no binding (tested: 100 nM)”. Besides, in test [4], the Ka was 2.58e+09 M⁻¹, the dissociation constant Kd turned out to be 0.388 nM, the off-rate constant (koff) was 0.000395 s⁻¹ and the association rate constant (kon) is 1.02e+06 M⁻¹ s⁻¹.

B8: 101-113-6C108 ATRIMER (designed binder)
chain: EPPTQKPKKIVNAKKDVVNTKMFEELKSRLDTLAQEVALLKEQQALQTVCLKGTKVHMKCFLAFTQTKTFHEASEDCISRGGTLSTPQTGSENDALYEYLRQSVGNEAEIWLGLNGSALTNTWVDMTGARIAYKNWEPPPPHHPMGGFGVFGENCAVLSGAANGKWFDKRCRDQLPYICQFGIV
As for B8, the binding result in test [5] was “no binding (tested: 100 nM)”. Also, the “Ratio IC50 to 056-53.H4E IC50” value in test [3] turned out to be 0.9 ratio. In test [6], the binding result is given as “no binding (tested: 100 nM)”. In addition, in test [4], the Ka worked out at 1.63e+09 M⁻¹, the Kd is 0.613 nM, the dissociation rate constant (koff) is 0.000382 s⁻¹ and the kon came out at 623000 M⁻¹ s⁻¹.

B9: 101-51-1A7 ATRIMER (designed binder)
chain: EPPTQKPKKIVNAKKDVVNTKMFEELKSRLDTLAQEVALLKEQQALQTVCLKGTKVHMKCFLAFTQTKTFHEASEDCISRGGTLSTPQTGSENDALYEYLRQSVGNEAEIWLGLNGSALTNTWVDMTGARIAYKNWERPPLYQPGGGWGVFGENCAVLSGAANGKWFDKRCRDQLPYICQFGIV
For B9, the binding result in test [5] is reported as “no binding (tested: 100 nM)”. The “Ratio IC50 to 056-53.H4E IC50” value in test [3] is 1 ratio. Moreover, the binding result in test [6] was “no binding (tested: 100 nM)”. In addition, in test [4], the Ka turned out to be 2.24e+09 M⁻¹, the Kd is 0.447 nM, the koff stood at 0.000187 s⁻¹ and the on-rate (kon) is 419000 M⁻¹ s⁻¹.

B10: 105-20-2F12 ATRIMER (designed binder)
chain: EPPTQKPKKIVNAKKDVVNTKMFEELKSRLDTLAQEVALLKEQQALQTVCLKGTKVHMKCFLAFTQTKTFHEASEDCISRGGTLSTPQTGSENDALYEYLRQSVGNEAEIWLGLNGSKLTDTWVDMTGARIAYKNWETEITAQPDGGFGYFGENCAVLSGAANGKWFDKRCRDQLPYICQFGIV
notes: not shown: C-terminal tag: His/Myc (pANA4) or HA-StrepII (pANA10)
As to B10, the “Ratio IC50 to 056-53.H4E IC50” value in test [3] came out at 2.8 ratio. In test [4], the Ka was 5.41e+08 M⁻¹, the dissociation constant Kd was 1.85 nM, the koff came out at 0.000471 s⁻¹ and the association rate constant (kon) turned out to be 254000 M⁻¹ s⁻¹.

The record behind these values is patent US20110086770A1 (ANAPHORE, published 2011).
